Test results as given in patent US20100004429A1 (Kyowa Kirin, published 2010).

T1: human thrombopoietin receptor (human c-Mpl) (human, UniProt P40238 26-635)
T1 sequence (looked up): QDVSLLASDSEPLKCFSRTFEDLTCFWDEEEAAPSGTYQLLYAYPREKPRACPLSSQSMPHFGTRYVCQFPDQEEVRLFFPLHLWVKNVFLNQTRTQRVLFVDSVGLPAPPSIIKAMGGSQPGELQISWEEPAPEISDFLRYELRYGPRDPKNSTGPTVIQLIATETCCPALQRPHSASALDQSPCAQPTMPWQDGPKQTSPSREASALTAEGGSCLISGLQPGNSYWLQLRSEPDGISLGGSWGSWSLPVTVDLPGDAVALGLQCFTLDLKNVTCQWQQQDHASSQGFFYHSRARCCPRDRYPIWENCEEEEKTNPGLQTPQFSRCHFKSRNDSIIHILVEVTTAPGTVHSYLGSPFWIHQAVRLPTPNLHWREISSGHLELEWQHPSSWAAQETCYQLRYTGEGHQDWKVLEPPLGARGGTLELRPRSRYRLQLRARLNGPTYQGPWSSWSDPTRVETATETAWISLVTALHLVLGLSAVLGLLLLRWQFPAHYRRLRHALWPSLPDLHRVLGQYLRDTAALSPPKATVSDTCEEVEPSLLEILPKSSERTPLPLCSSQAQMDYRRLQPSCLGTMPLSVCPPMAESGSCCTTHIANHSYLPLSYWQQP


What was measured:
[1] = target: T1, human thrombopoietin receptor (human …); test: cell-based or functional assay
[2] = target: T1, human thrombopoietin receptor (human …); test: cell-based or functional assay; remark: listed apart in the source
[3] = target: T1, human thrombopoietin receptor (human …); test: flow cytometry on FM3A-hMpl cells
Protocol: The binding activity of the anti-human c-Mpl antibodies was assayed by flow cytometry using the hybridoma culture supernatants or purified antibodies in the following manner. The FM3A-hMpl cells or human Mpl expressing FDCP2 cells (FDCP-hMpl) (FEBS, Lett., Oct. 21, 1996, 395 (2-3): 228-34) were used.
Cells (4×10⁵ cells) were suspended in 50 μl of FACS staining medium (2% FBS, 0.1% NaN₃, 1 mM EDTA in PBS) per reaction, 50 μl of the hybridoma culture supernatant or purified human antibody solution (final concentration: 0.1-1 μg/ml) was added, and the reaction was carried out on ice for 30 minutes. After the washing with FACS staining medium, a secondary antibody, the R-phycoerythrin (RPE) labeled goat anti-human Igγ F(ab′) antibody (Cat#2043-09, Southern Biotechnology), was added, and the reaction was carried out again on ice under the light-shielded conditions for 30 minutes, followed by washing again. The cells were suspended in a propidium iodide (PI)-containing FACS staining medium in order to analying binding activities of the antibodies. The analysis was made using the FACS Calibur (Becton Dickinson).
The concentrations of antibodies were prepared at 1, 0.1, and 0.01 μg/ml, and flow cytometry was carried out using FM3A-hMpl cells. The experiment was carried out in accordance with the method described in Example 4. […]

| UT7/TPO (Max) [1] [%] | Binder | also measured |
| --- | --- | --- |
| > 50 | anti-human c-Mpl agonist antibody 6-5-2 (IgG1) (antibody, V domains shown) VH: EVQLVECGGGLVQPGRSLRLSCAASGFTFDDYAMHWVRQAPGKGLEWVSGISWNSGSIGYADSVKGRFTISRDNAKNSLYLQMNSLRAEDTALYYCAKPIWFGEWGNYYGMDVWGQGTTVTVSS VL: not shown |  |
| > 90 | anti-human c-Mpl agonist antibody 7-10 (IgG1) (antibody, V domains shown) VH: EVQLVESGGGLVQPGRSLRLSCAASGFTFDDYAMHWVRQAPGKGLEWVSGISWNSGSIGYADSVKGRFTISRDNAKNSLYLQMNSLRAEDTALYYCAKNLWFGEFRYWYFDLWGRGTLVTVSS VL: AIQLTQSPSSLSASVGDRVTITCRASQGISSALAWYQQKPGKAPKLLIYDASSLESGVPSRFSGSGSGTDFTLTISSLQPEDFATYYCQQFNSYPLTFGGGTKVEIK |  |

The next lines start with the binder.

| Binder | UT7/TPO (Max) [1] [%] | also measured |
| --- | --- | --- |
| 7-10G4344uhm light chain mutant 7-10VL_Y94F (antibody, V domains shown, Human kappa constant region; also called CDR substitution product) VH: EVQLVESGGGLVQPGRSLRLSCAASGFTFDDYAMHWVRQAPGKGLEWVSGISWNSGSIGYADSVKGRFTISRDNAKNSLYLQMNSLRAEDTALYYCAKNLWFGEFRYWYFDLWGRGTLVTVSS VL: AIQLTQSPSSLSASVGDRVTITCRASQGISSALAWYQQKPGKAPKLLIYDASSLESGVPSRFSGSGSGTDFTLTISSLQPEDFATYYCQQFNSFPLTFGGGTKVEIK |  | agonistic activity relative to the original 7-10G4344uhm [2]: ~0.1 fold of the original level; binding activity relative to the original 7-10G4344uhm [3]: ~0.1 fold of the original level |
| 7-10G4344uhm light chain mutant 7-10VL_A43V (antibody, V domains shown, Mutant light chain combined with the heavy chain of 7-10G4344uhm; human kappa constant region; also called 6-4-50VL substitution product 2) VH: EVQLVESGGGLVQPGRSLRLSCAASGFTFDDYAMHWVRQAPGKGLEWVSGISWNSGSIGYADSVKGRFTISRDNAKNSLYLQMNSLRAEDTALYYCAKNLWFGEFRYWYFDLWGRGTLVTVSS VL: AIQLTQSPSSLSASVGDRVTITCRASQGISSALAWYQQKPGKVPKLLIYDASSLESGVPSRFSGSGSGTDFTLTISSLQPEDFATYYCQQFNSYPLTFGGGTKVEIK |  | binding result [3]: binds |
| anti-human c-Mpl agonist antibody 4-49 (IgG1) (antibody, V domains shown) VH: EEQLVESGGGLVQPGRSLRLSCTASGFTFDDYAMYWVRQVPGKGLEWVSGISWNSGSIGYADSVKGRFTVSRDNAKNSLYLQMNSLRAEDTALYYCAKALWFGEFPHYYGMDVWGQGTTVTVSS VL: AIQLTQSPSSLSASVGDRVTITCRASQGISSTLAWYQQKPGKAPKLLIYDASSLESGVPSRFSGSGSGTDFTLTISSLQPEDFATYYCQQFNSYPYTFGQGTKLEIKR | > 80 |  |
| anti-human c-Mpl agonist antibody 6-4-50 (IgG1) (antibody, V domains shown) VH: EVQLVESGGGLVQPGRSLRLSCATSGFTFDNYAMYWVRQAPGKGLEWVSGISWNSGDIGYADSVKGRFTISRDNAKNSLYLQMNSLRAEDTALYYCARDAGFGEFHYGLDVWGQGTTVTVSS VL: AIQLTQSPSSLSASVGDRVTITCRASQGISSALAWYQQKPGKVPKLLIYDASSLESGVPSRFSGSGSGTDFTLTISSLQPEDFATYYCQQFNSYPWTFGQGTKVEIKR | > 80 |  |
